T1: CD27 protein (His-tagged, Sino Biological Inc. 10039-H08B1) (human, UniProt P26842 20-192)
T1 construct: bought; coated onto ELISA plates; also called human CD27; recombinant protein; not shown: His tag
T1 sequence (looked up): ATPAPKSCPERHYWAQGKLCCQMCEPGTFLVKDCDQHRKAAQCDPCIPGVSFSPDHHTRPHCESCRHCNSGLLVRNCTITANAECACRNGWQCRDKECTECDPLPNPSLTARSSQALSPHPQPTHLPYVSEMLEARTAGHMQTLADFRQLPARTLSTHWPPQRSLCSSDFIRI

T2: CD27 expressed on the cell surface (HT1080_CD27 cells) (human, UniProt P26842 20-260)
T2 construct: whole, on cells; also called K562_CD27
T2 sequence (looked up): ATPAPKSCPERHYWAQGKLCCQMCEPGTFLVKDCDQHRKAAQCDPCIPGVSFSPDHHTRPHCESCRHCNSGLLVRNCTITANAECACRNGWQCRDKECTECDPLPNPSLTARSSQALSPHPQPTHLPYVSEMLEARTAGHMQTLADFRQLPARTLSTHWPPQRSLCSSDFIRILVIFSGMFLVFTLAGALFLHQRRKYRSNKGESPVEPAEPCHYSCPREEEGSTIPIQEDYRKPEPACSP

B1: P018.S.08.A.A03 (antibody, V domains shown)
VH: QSLEESGGRLVTPGTPLTLTCTASGFSLSSYGMIWVRQAPGKGLEWIGMIIDVTYTYYASWAKGRFTISKTSTTVDLKMTSLTTEDTATYFCARTPGYGIYAYGNLWGQGTLVTVSS
VL: AQVLTQTPSPVSAAVGGTVTISCQSSQSVYGNNWLAWYQQKPGQPPKLLIYYASTLASGVPSRFKGSGSGTQFTLTISEVQSDDAATYYCQGYYSSAAYVFGGGTEVVVK
notes: V regions on human Ig constant parts; also called AB27_136
B2: P018.S.02.A.A01 (antibody, V domains shown)
VH: QSVEESGGRLVTPGTPLTLTCTVSGIDLSRYAMGWVRQAPGKGLEYIGIISSSGSTYYASWIKGRFTISKTSTTVDLKITSPTTEDTATYFCARSPYASTSASAFNLWGPGTLVTVSS
VL: AFELTQTPSSVEAAVGGTVTIKCQASQSISSWLSWYQQKPGQPPKLLIYEASKLASGVPSRFKGSGSGTQFTLTISDLESADAATYYCQSYSSTTTNTFGGGTEVVVK
notes: V regions on human Ig constant parts; also called AB27_27
B3: P018.S.03.A.C04 (antibody, V domains shown)
VH: QSVEESGGRLVTPGTPLTLTCTVSGVDLSRYAMSWVRQAPGEGLEWIGTIWYSGTTYYASWAKGRFTISKTSSTTVDLKMTSLTAADTATYFCARDPLYVGGNSGSDLWGPGTLVTVSS
VL: DVVMTQTPASVSAAVGGTVTINCQASQSIGSSLAWYQQKPGQRPKLLIYYASTLASGVPSRFSGSGSGTEFTLTISDLESADAATYYCQSNYGAASSSYGAFGGGTEVVVK
notes: V regions on human Ig constant parts; also called AB27_45
B4: P018.S.01.A.C05 (antibody, V domains shown)
VH: QSLEESGGGLVQPEGSLTLTCTASGFSFSSRYYMCWVRQAPGKGLELIACIDTSSGSTWYASWAKGRFTVSKTSSTTVTLQMTSLTAADTATYFCARDLYHENSDGDWWGPGTLVTVSS
VL: AFELTQTPSSVEAAVGGTVTIKCQASESINNYLAWYQQKPGQPPKLLIYKASTLASGVSSRFKGSGSGTDFTLTISGVQSDDAATYYCQSYYGASGSGSNVFGGGTEVVVK
notes: V regions on human Ig constant parts; also called AB27_9
B5: P018.S.03.A.D03 (antibody, V domains shown)
VH: QEQLVESGGGLVQPEGSLTLTCTASGFSFNNNYVMSWVRQAPGKGLEWIGTIYVVSGSTYYASWVNGRFSISKTSSTTVTLQMTSLTDADTATYFCARDQLYNSGYDFDLWGPGTLVIVSS
VL: AQVLTQTASPVSAAVGSTVTISCQSSQSVYNNNELSWYQQKPGQPPKLLIYQASKLASGVSSRFSGSESGTQFTLTISGVQSDDAATYYCQGTYYRSGLDNGFGGGTEVVVK
notes: V regions on human Ig constant parts; also called AB27_48
B6: P018.S.06.A.H04 (antibody, V domains shown)
VH: QEKLEESGGGLVKPGGSLTLPCTASGFTLSSRYYMCWVRQAPGKGLEWIGCIYAGSLRTWYASWAKGRFTISKTSSTTVTLQMTSLTAADTATYFCARSPGVAASYPELWGPGTLVTVSS
VL: AQVLTQTPSSVAAAVGGTVSISCQSSQSVGNADNLAWYQQKPGQPPNLLIYYAASLASGVPSRFKGSGSGTQFTLTISDLESDDAATYYCGGGYYNSTDTFYTFGGGTEVVVK
notes: V regions on human Ig constant parts; also called AB27_111
B7: P018.S.01.A.E05 (antibody, V domains shown)
VH: QEQLVESGGGLVQPEGSLTLTCTASGFSFSSRYYMCWVRQAPGKGLEWIACIAPDVSGSAYYATWAKGRITISETSSTTVTLRMTSLTAADTAIYFCARSVPGSLFYFQLWGPGTVVTVSS
VL: AAVLTQTPPSVSAAVGGTVTIKCQSSQSVYNKNEFSWYQQKPGQPPKLLIYDASTLASGVPSRFKGSGSGTQFTLTISDLESDDAATYYCQGSYYSSGSYTAFGGGTEVVVK
notes: V regions on human Ig constant parts; also called AB27_17
B8: P018.S.01.A.C04 (antibody, V domains shown)
VH: QSLEESGGGLVTPGGTLTLTCTASGSDISTYHMGWFRQAPGKGLEYIGFINTGGTTWYASWAKGRFTVSRTSTTVDLLMTSPTTEDTATYFCARYDAGHAFFDLWGPGTLVTVSS
VL: AVVMTQTASPVSAAVGGTVTIKCQASQSIGSSYFSWYQQKPGQPPKLLIYSASTLASGVSSRFKGSGSGTEYTLTISDLESADAATYYCQGYDGDTTTAFFAFGGGTEVVVE
notes: V regions on human Ig constant parts; also called AB27_8
B9: P018.S.10.A.C03 (antibody, V domains shown)
VH: QSVEESGGRLVTPGTPLTLTCTVSGFSLSSYYMIWVRQAPGKGLEWIGIINTSGGAYYATWANGRFTISRTSTTVDLKITSPTTEDTATYFCARYLDNGFYCPDLWGQGTLVIVSS
VL: DIVMTQTPSSVSEAVGGTVTIKCQASEDIYTLLAWYQQKPGQPPKLLIYKASILASGVSSRFKGGGSGADFTLTISDLESADAATYYCQSTYYGAAYIGAFGGGTEVVVK
notes: V regions on human Ig constant parts; also called AB27_172
B10: P018.S.06.A.C02 (antibody, V domains shown)
VH: QSVEESGGRLVTPGTPLTLTCIVSGIDLSSNAMSWVRQAPGKGLEWIGIIGFAGITYYANWAKGRFTISKTSTTVDLKITSPTTEDTATYFCARAYGDSDGLYNLWGQGTLVTVSS
VL: AQVLTQTASSVSAAVGGTVTISCQSSESVYNNNWLGWFQQKPGQPPKLLIYLASTLASGVPSRFKGSGSGTQFTLTISDLESDDAATYYCQGGYSGNIFAFGGGTEVVVN
notes: V regions on human Ig constant parts; also called AB27_100
B11: P018.S.06.A.A02 (antibody, V domains shown)
VH: QEQLVESGGGLVQPEGSLTLTCTSSGFSLNSNYYISWVRQAPGKGLEWIACIDAGSGSTWYASWVKGRFTISKTSSTTVTLQMTSLTAADTATYFCARDDIGTSYEYYFGLWGPGTLVTVSS
VL: DVVLTQTPASVSEPVGGTVTIKCQASQTISSYLAWYQQKSGQPPKLLIYSASTLASGVSSRFKGSGSGTEYTLTISDLESADAATYYCQTYYGSDSYVFGGGTEVVVK
notes: V regions on human Ig constant parts; also called AB27_95
B12: P018.S.03.A.D06 (antibody, V domains shown)
VH: QSLEESGGRLVTPGTPLTLTCTASGFSLSSYWMSWVRQAPGKGLEWIGYIYAGSGSAYYASWVKGRFTISKTSTTVDLKISSPTTEDTATYFCGRGNYDGYINVYDLWGPGTLVTVSS
VL: DVVMTQTPSSVEAAVGGTVTIKCQASQSIGSYLAWYQKKPGQPPKLLIYAAANLAAGVPSRFKGSGSGTDFTLTINDLESADAATYYCQNNNGAYGSAYVGAFGGGTEVVVK
notes: V regions on human Ig constant parts; also called AB27_51
B13: P018.S.07.A.E05 (antibody, V domains shown)
VH: QSLEESGGRLVTPGGSLTLTCTVSGIDLSSYAMIWVRQAPGKGLEWIGYIYGGSGSTWYASWAKGRFTISKTSSTTVDLKMTSLTTEDTATYFCARAYDSGYIGNSFYIFDPWGPGTLVTVSS
VL: DIVMTQTPASVSATVGGTVTIKCQASQSISSRLAWYQQKPGQPPKLLIYSASTLASGVSSRFRGSGSGTEFTLTISDLESADGATYYCAGYGGLGITAFGGGTEVVVK
notes: V regions on human Ig constant parts; also called AB27_126
B14: P018.S.03.A.G03 (antibody, V domains shown)
VH: QEHLEESGGGLVQPEGSLTLTCKASGFDFSSNYYMSWVRQAPGTGLEWIACIDSGSSGSTWYASWVKGRFTISKTSSTTVTLQMTSLTDADTAAYFCVRDDVGSSYEYYFSLWGPGTLVTVSS
VL: DVVMTQTPASVSEPVGGTVTIKCQASQSIGSFLGWYQQKPGQPPKLLIYQASKLASGVPSRFKGSGSGTEYTLTISDLESADAAAYYCQTYFGSDSYVFGGGTEVVVK
notes: V regions on human Ig constant parts; also called AB27_57

How the values were obtained:
[1] = molecular target: T1, CD27 protein (His-tagged, Sino …); assay: ELISA on coated His-tagged CD27
[2] = molecular target: T2, CD27 expressed on the cell surface …; assay: cellular binding assay, HT1080_CD27 cells
[3] = molecular target: T2, CD27 expressed on the cell surface …; assay: cell-based or functional assay
Note: test concentration or dose not given here.

| Binder | ELISA [abs. corr.] [1] | Cellular binding assay [RFU] [2] | IL-8, cross-linked by F(ab')2 fragment [abs. corr.] [3] | IL-8 [abs. corr.] [3] |
| --- | --- | --- | --- | --- |
| B1 | 3.21 abs. corr. | 342 RFU | 1.64 abs. corr. | 0.276 abs. corr. |
| B2 | 3.23 abs. corr. | 350 RFU | 1.62 abs. corr. | 0.4 abs. corr. |
| B3 | 3.52 abs. corr. | 337 RFU | 1.48 abs. corr. | 0.394 abs. corr. |
| B4 | 3.19 abs. corr. | 349 RFU | 1.4 abs. corr. | 0.327 abs. corr. |
| B5 | 3.22 abs. corr. | 320 RFU | 1.05 abs. corr. | 0.281 abs. corr. |
| B6 | 3.23 abs. corr. | 331 RFU | 1.69 abs. corr. | 0.173 abs. corr. |
| B7 | 3.22 abs. corr. | 420 RFU | 1.33 abs. corr. | 0.209 abs. corr. |
| B8 | 3.24 abs. corr. | 368 RFU | 1.08 abs. corr. | 0.383 abs. corr. |
| B9 | 3.21 abs. corr. | 360 RFU | 1.56 abs. corr. | 0.079 abs. corr. |
| B10 | 3.23 abs. corr. | 283 RFU | 1.61 abs. corr. | 0.519 abs. corr. |
| B11 | 3.23 abs. corr. | 366 RFU | 1.81 abs. corr. | 0.737 abs. corr. |
| B12 | 3.19 abs. corr. | 360 RFU | 1.05 abs. corr. | 0.245 abs. corr. |
| B13 | 3.2 abs. corr. | 317 RFU | 1.15 abs. corr. | 0.055 abs. corr. |
| B14 | 3.21 abs. corr. | 292 RFU | 1.58 abs. corr. | 0.546 abs. corr. |

— US20210253725A1 (BIONTECH, published 2021)
